This note sets out measurements from IntAct's records for PubMed 25170080.

The chains are these.
B1: Protein Nef (Human immunodeficiency virus type 1 group M subtype B (isolate HXB2) (HIV-1)), P04601 (parent)
chain: MGGKWSKSSVIGWPTVRERMRRAEPAADRVGAASRDLEKHGAITSSNTAATNAACAWLEAQEEEEVGFPVTPQVPLRPMTYKAAVDLSHFLKEKGGLEGLIHSQRRQDILDLWIYHTQGYFPDWQNYTPGPGVRYPLTFGWCYKLVPVEPDKIEEANKGENTSLLHPVSLHGMDDPEREVLEWRFDSRLAFHHVARELHPEYFKNC
partner: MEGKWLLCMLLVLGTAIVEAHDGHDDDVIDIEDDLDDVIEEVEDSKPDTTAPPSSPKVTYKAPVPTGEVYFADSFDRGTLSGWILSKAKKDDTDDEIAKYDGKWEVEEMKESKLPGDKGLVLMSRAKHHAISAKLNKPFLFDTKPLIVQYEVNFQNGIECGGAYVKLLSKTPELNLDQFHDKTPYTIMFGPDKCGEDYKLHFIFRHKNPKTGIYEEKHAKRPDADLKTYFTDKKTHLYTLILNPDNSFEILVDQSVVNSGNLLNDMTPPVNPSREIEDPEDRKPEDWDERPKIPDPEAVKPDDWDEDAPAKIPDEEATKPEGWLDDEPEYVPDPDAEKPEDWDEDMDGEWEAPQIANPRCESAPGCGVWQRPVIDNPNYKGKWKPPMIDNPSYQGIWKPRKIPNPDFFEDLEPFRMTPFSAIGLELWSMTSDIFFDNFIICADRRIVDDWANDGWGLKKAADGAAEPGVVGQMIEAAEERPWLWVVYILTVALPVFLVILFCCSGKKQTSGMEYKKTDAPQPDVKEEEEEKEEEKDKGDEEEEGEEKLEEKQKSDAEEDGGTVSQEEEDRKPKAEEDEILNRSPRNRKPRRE

Variants of B1 are the subject of the experiment. Particulars: with calx_human CANX.
As for G2A, the “effect of a mutation on the interaction” value is “disrupting interaction strength”.
